Data from patent US20240116985A1 (published 2024).
Starred links: 1 amine or outer side, 2 acyl side, 3 side chain; linkers in the order of their positions; H or OH if unused. Positions of bridges follow the written chain, without caps; N, C: chain ends. Non-standard residues stand in square brackets, D forms with d. Primed or numbered codes have the meaning given here. B5(10) = 2-amino-2-(pent-4-en-1-yl)hept-6-enoic acid, bis(4-pentenyl)glycine, stitching residue bearing both staples, C=CCCCC(CCCC=C)(N[*:1])C(=O)[*:2]; PyrS2″ = (S)-3-amino-1-((pent-4-en-1-yloxy)carbonyl)pyrrolidine-3-carboxylic acid (stapling residue), C=CCCCOC(=O)N1CC[C@@](N[*:1])(C(=O)[*:2])C1; B5(4) = 2,2-bis(4-pentenyl)glycine = 2-amino-2-(pent-4-en-1-yl)hept-6-enoic acid (stitching residue), C=CCCCC(CCCC=C)(N[*:1])C(=O)[*:2]; B5(5) = 2,2-bis(4-pentenyl)glycine, 2-amino-2-(pent-4-en-1-yl)hept-6-enoic acid (stitching residue), C=CCCCC(CCCC=C)(N[*:1])C(=O)[*:2]; B5(33) = 2-amino-2-(pent-4-en-1-yl)hept-6-enoic acid (bis-pentenylglycine, two olefin side chains), C=CCCCC(CCCC=C)(N[*:1])C(=O)[*:2]; B5(6) = 2-amino-2-(pent-4-en-1-yl)hept-6-enoic acid (bis(4-pentenyl)glycine), stitching residue, C=CCCCC(CCCC=C)(N[*:1])C(=O)[*:2]; PyrS2 = (S)-3-amino-1-((pent-4-en-1-yloxy)carbonyl)pyrrolidine-3-carboxylic acid, C=CCCCOC(=O)N1CC[C@@](N[*:1])(C(=O)[*:2])C1; B5 = 2-amino-2-(pent-4-en-1-yl)hept-6-enoic acid, C=CCCCC(CCCC=C)(N[*:1])C(=O)[*:2]; B5(28) = 2,2-bis(4-pentenyl)glycine, C=CCCCC(CCCC=C)(N[*:1])C(=O)[*:2]; S7 = C[C@@](CCCCCC=[*:3])(N[*:1])C(=O)[*:2]; Phe(2-Cl) = N[C@@H](Cc1ccccc1Cl)C(=O)O; Bta = N[C@@H](Cc1csc2ccccc12)C(=O)O; Lys(iPr) = CC(C)NCCCC[C@H](N)C(=O)O; αAllylPro = C=CC[C@@]1(C(=O)O)CCCN1; tBuAla = CC(C)(C)C[C@H](N)C(=O)O; Aad = N[C@@H](CCCC(=O)O)C(=O)O; S8 = C=CCCCCCC[C@](C)(N)C(=O)O; Aib = CC(C)(N)C(=O)O

T1: beta-catenin (full-length, Uniprot ID P35222) (Homo sapiens (Human), UniProt P35222 2-781)
T1 construct: The FP protocol says 'full-length beta-Catenin (Uniprot ID P35222)'; also called bCat; B-Catenin
T1 sequence: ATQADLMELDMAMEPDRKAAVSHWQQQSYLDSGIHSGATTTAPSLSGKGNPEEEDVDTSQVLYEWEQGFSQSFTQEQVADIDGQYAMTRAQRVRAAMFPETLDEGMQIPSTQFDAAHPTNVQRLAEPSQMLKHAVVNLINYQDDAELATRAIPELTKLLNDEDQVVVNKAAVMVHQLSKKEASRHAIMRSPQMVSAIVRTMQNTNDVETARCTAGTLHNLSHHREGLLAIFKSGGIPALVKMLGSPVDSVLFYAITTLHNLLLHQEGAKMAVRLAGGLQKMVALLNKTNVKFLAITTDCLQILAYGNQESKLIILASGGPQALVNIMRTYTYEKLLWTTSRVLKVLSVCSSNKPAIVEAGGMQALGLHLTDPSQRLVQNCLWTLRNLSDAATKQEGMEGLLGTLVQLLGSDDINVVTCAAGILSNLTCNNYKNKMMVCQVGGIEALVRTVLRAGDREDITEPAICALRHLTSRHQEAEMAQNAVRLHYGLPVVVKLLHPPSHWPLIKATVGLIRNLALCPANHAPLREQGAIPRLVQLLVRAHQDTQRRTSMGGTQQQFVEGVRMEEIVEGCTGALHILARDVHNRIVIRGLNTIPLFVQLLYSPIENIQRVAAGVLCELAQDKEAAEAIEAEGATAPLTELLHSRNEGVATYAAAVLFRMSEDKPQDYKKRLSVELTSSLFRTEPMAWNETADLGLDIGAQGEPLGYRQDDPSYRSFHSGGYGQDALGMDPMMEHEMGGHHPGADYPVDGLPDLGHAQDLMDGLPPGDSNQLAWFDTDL

T2: full-length beta-Catenin (Uniprot ID P35222) (Homo sapiens (Human), UniProt P35222 1-781)
T2 construct: also called bCat; B-Catenin
T2 sequence: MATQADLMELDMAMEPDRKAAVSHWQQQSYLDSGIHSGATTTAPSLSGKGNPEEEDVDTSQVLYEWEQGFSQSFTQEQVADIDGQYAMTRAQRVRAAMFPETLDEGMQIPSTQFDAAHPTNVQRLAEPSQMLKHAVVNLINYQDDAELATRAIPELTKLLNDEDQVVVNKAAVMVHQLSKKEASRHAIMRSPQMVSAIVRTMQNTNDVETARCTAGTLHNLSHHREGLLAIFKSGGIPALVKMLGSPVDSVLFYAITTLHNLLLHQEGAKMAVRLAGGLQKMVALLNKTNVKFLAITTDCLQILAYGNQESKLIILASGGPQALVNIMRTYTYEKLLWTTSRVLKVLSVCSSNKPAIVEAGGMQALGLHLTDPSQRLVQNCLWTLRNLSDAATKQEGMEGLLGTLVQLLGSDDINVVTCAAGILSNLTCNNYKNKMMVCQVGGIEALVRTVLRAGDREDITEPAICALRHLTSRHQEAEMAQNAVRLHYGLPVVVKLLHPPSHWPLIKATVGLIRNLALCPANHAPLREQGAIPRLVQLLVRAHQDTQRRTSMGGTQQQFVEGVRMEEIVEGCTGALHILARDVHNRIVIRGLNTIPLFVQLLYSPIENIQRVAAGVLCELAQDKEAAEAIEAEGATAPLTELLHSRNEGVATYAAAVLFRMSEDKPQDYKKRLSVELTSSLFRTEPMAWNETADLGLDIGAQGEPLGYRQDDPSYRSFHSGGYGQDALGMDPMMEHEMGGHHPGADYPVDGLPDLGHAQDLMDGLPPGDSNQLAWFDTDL

T3: B-cat-Halo (UniProt P35222 1-781)
T3 sequence (looked up): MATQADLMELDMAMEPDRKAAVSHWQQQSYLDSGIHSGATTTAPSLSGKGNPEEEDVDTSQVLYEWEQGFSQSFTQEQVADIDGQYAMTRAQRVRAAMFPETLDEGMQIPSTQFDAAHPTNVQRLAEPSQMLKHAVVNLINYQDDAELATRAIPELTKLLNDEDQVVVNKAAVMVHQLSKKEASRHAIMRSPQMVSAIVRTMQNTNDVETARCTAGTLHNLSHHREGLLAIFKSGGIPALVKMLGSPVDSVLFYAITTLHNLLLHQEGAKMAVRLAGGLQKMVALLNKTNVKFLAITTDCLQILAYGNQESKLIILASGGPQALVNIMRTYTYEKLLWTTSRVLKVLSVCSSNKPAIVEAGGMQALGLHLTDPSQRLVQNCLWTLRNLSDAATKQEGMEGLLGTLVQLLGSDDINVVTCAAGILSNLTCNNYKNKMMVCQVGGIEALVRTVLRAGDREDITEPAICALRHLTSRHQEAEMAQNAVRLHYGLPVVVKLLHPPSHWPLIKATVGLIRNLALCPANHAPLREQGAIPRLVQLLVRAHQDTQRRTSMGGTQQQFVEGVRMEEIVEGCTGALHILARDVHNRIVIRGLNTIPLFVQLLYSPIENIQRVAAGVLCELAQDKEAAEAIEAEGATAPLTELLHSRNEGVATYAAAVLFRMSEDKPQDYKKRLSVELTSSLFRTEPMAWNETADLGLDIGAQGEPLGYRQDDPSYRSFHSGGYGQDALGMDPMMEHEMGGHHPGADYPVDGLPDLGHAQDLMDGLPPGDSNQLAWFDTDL


Key:
[1] = biological target: T1, beta-catenin (full-length, Uniprot ID …); assay: fluorescence polarization competition vs 5FAM-TCF4(10-53) on full-length beta-catenin
Method: (§1) The plate was incubated protected from light for 60 minutes at 20° C. prior to read. Reads were performed on a CLARIOstar plate reader (BMG Labtech) in duplicate, and data were fitted to a 1:1 binding model with hill slope using an in-house script. All provided concentrations are final concentrations.

[2] = biological target: T2, full-length beta-Catenin (Uniprot ID …); assay: fluorescence polarization competition; 10 nM full-length beta-catenin + 10 nM 5FAM-TCF4(10-53) probe
Method: as §1

[3] = biological target: T3, B-cat-Halo; assay: cell-based or functional assay

Binder	IC50 [1]	EC50 [2]	also measured
Ac-[αAllylPro]DA[B5(10)]D[Aad]AAFV[S8]FWQ-NH2 (staple 1-4, 4-11, Stapled peptide) [I-129: Ac-PL3-Asp-Ala-B5-Asp-Aad-Ala-Ala-Phe-Val-S8-Phe-Trp-Gln-NH2]	1980 nM		
Ac-[αAllylPro]DL[B5(6)]DEAAFQ[S8]F[Bta]H-NH2 (staple 1-4, 4-11, Stapled peptide composition; also called Ac-PL3-Asp-Leu-B5-Asp-Glu-Ala-Ala-Phe-Gln-S8-Phe-BztA-His-NH2) [I-506]		25 nM	
XDAXDEAAFQXFXT (not fully specified; N-terminal acetyl (Ac); PL3 at X1, B5 at X4 and S8 at X11 stapled (PL3-B5 and B5-S8, olefin metathesis); BztA at X13; C-terminal amide (NH2), Stapled peptide composition; also called Ac-PL3-Asp-Ala-B5-Asp-Glu-Ala-Ala-Phe-Gln-S8-Phe-BztA-Thr-NH2) [I-507]		192 nM	
Ac-[αAllylPro]DA[B5(4)]DEAAFV[S8]FWQ-NH2 (staple 1-4, 4-11, Stapled (stitched) peptide) [I-123: Ac-PL3-Asp-Ala-B5-Asp-Glu-Ala-Ala-Phe-Val-S8-Phe-Trp-Gln-NH2]	2110 nM		
Ac-[αAllylPro]DA[B5(4)]DEAAFV[S8]FWA-NH2 (staple 1-4, 4-11, Stapled peptide) [I-135: Ac-PL3-Asp-Ala-B5-Asp-Glu-Ala-Ala-Phe-Val-S8-Phe-Trp-Ala-NH2]	1870 nM		
XDAXDQAAFVXFWQ (not fully specified; N-terminal Ac; PL3 at 1; B5 at 4; S8 at 11; C-terminal NH2; stapled by olefin metathesis (PL3-B5 and B5-S8), Stapled peptide) [I-127: Ac-PL3-Asp-Ala-B5-Asp-Gln-Ala-Ala-Phe-Val-S8-Phe-Trp-Gln-NH2]	4840 nM		
Ac-[αAllylPro]DA[B5(33)]DNAAFV[S8]FWQ-NH2 (staple 1-4, 4-11, Stapled peptide) [I-125: Ac-PL3-Asp-Ala-B5-Asp-Asn-Ala-Ala-Phe-Val-S8-Phe-Trp-Gln-NH2]	3060 nM		
Ac-[αAllylPro]DA[B5]DEAAFV[S7]FWQ-NH2 (staple 1-4, 4-11, Stapled peptide) [I-132: Ac-PL3-Asp-Ala-B5-Asp-Glu-Ala-Ala-Phe-Val-S7-Phe-Trp-Gln-NH2]	5000 nM		
Ac-[αAllylPro]DA[B5(28)]DEAAFV[S8]FW[Aib]-NH2 (staple 1-4, 4-11, Stapled peptide) [I-134: Ac-PL3-Asp-Ala-B5-Asp-Glu-Ala-Ala-Phe-Val-S8-Phe-Trp-Aib-NH2]	2700 nM		
Ac-[αAllylPro]D[tBuAla][B5(5)]DDAAF[Lys(iPr)][PyrS2][Phe(2-Cl)][Bta]Q-NH2 (staple 1-4, 4-11; not fully specified; printed as Ac-PL3-Asp-Npg-B5-Asp-Asp-Ala-Ala-Phe-iPrLys-PyrS2-2C1F-BztA-Gln-NH2) [I-1278]			NanoBRET Abs IC50 [3]: 18000 nM
Ac-[αAllylPro]D[tBuAla][B5(5)]DD[Lys(iPr)]AFT[PyrS2″][Phe(2-Cl)][Bta]T-NH2 (staple 1-4; staple 4-11 (inferred); not fully specified; printed as Ac-PL3-Asp-Npg-B5-Asp-Asp-iPrLys-Ala-Phe-Thr-PyrS2-2C1F-BztA-Thr-NH2) [I-1273]			NanoBRET Abs IC50 [3]: > 20000 nM
Ac-[αAllylPro]D[tBuAla][B5(5)]DD[Lys(iPr)]AFL[PyrS2″][Phe(2-Cl)][Bta]T-NH2 (staple 1-4; staple 4-11 (inferred); not fully specified; printed as Ac-PL3-Asp-Npg-B5-Asp-Asp-iPrLys-Ala-Phe-Leu-PyrS2-2C1F-BztA-Thr-NH2) [I-1276]			NanoBRET Abs IC50 [3]: > 20000 nM

Now from value to binder, other results behind:

IC50 [1]	EC50 [2]	Binder	also measured
	63 nM	XDIXDEAAFQXFXQ (not fully specified; N-terminal acetyl (Ac); PL3 at X1, B5 at X4 and S8 at X11 stapled (PL3-B5 and B5-S8, olefin metathesis); 2OMeF at X12; BztA at X13; C-terminal amide (NH2), Stapled peptide composition; also called Ac-PL3-Asp-Ile-B5-Asp-Glu-Ala-Ala-Phe-Gln-S8-2OMeF-BztA-Gln-NH2) [I-528]	
	73 nM	XDAXDEAAFQXFXT (not fully specified; N-terminal acetyl (Ac); PL3 at X1, B5 at X4 and S8 at X11 stapled (PL3-B5 and B5-S8, olefin metathesis); BztA at X13; C-terminal amide (NH2), Stapled peptide composition; also called Ac-PL3-Asp-Ala-B5-Asp-Glu-Ala-Ala-Phe-Gln-S8-Phe-BztA-Thr-NH2) [I-508]	
	98 nM	XDIXDEAAFQXFXQ (not fully specified; N-terminal acetyl (Ac); PL3 at X1, B5 at X4 and S8 at X11 stapled (PL3-B5 and B5-S8, olefin metathesis); 2OMeF at X12; BztA at X13; C-terminal amide (NH2), Stapled peptide composition; also called Ac-PL3-Asp-Ile-B5-Asp-Glu-Ala-Ala-Phe-Gln-S8-2OMeF-BztA-Gln-NH2) [I-527]	
